Laboratory results taken from patent publication US20180154038A1.
Where no end group is shown, it is not given here.

Target: human fibrinogen (human) (UniProt P02671)
Test: cell-based or functional assay

Sequence of human fibrinogen (human) (P02671 20-629 limits assumed, chain 1 of 3): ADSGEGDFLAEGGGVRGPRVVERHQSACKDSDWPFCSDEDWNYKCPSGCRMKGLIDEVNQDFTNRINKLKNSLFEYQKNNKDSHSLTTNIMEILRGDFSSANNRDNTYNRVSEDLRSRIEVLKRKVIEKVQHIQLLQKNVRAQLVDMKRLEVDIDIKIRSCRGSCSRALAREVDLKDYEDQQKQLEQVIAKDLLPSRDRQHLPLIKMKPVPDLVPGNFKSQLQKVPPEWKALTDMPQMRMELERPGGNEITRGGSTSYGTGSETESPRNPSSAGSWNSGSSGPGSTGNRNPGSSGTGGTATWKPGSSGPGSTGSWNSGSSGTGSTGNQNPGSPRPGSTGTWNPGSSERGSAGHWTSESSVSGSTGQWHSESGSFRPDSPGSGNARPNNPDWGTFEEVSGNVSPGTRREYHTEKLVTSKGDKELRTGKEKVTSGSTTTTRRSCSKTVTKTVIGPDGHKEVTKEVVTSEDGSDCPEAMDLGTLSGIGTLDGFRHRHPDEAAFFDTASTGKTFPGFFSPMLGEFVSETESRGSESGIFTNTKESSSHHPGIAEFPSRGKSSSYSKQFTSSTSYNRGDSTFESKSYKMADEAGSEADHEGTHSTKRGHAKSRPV
Sequence of human fibrinogen (human) (P02675 31-491 limits assumed, chain 2 of 3, further chain): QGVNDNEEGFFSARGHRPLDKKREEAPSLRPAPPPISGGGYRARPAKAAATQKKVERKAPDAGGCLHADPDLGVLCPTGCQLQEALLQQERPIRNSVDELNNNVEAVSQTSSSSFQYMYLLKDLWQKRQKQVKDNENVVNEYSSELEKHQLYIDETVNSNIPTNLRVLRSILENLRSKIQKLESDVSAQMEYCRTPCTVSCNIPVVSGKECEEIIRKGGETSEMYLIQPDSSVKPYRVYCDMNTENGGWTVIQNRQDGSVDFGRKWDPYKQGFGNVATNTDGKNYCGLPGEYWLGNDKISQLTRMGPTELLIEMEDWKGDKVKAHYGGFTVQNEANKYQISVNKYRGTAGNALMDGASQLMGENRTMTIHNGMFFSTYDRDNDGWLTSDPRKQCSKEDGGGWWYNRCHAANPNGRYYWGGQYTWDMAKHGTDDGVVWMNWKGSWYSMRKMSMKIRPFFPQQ
Sequence of human fibrinogen (human) (P02679 other isoform, or with tags, fused parts or gaps limits assumed, chain 3 of 3, further chain): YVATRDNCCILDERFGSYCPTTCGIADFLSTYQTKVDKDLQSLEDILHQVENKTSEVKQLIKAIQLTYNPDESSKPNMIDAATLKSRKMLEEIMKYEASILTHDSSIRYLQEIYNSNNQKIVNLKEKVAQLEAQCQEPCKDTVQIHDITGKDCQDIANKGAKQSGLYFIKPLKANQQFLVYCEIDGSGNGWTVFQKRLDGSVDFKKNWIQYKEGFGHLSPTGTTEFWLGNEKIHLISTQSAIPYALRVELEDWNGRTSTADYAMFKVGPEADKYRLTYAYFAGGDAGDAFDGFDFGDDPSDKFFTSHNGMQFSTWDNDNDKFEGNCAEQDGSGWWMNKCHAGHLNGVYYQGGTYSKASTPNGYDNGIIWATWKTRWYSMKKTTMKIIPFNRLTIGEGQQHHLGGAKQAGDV

B1: Peptide Dendrimer No. 12 (peptide, from a related filing, part only)
peptide: GPRPG
chain: KKKKK
modifications: not fully specified; also: five-arm peptide dendrimer, arms attached by C-terminus to branched core
A Clotting activity (seconds) in human fibrinogen @ c = 3 mg/ml; HXP12 extracted from HA paste, 0.06 mg/ml; after sterilization, accelerated aging @ 40 C, 2 weeks of 3.6 s, a Clotting activity (seconds) in human fibrinogen @ c = 3 mg/ml; HXP12 extracted from HA paste, 0.06 mg/ml; after sterilization, accelerated aging @ 40 C, 4 weeks of 5.4 s and a Clotting activity (seconds) in human fibrinogen @ c = 3 mg/ml; HXP12 extracted from HA paste, 0.06 mg/ml; autoclaved @ 121 C of 3.3 s were found for B1 in this work. For the same binder, the Clotting activity (seconds) in human fibrinogen @ c = 3 mg/ml; HXP12 extracted from HA paste, 0.06 mg/ml; non autoclaved was 1 s, the Clotting activity (seconds) in human fibrinogen; HXP12 0.05 mg/ml in saline; after sterilization, storage @ 40 C, 4 wks was 0.9 s and the Clotting activity (seconds) in human fibrinogen; HXP12 0.05 mg/ml in saline; after sterilization, storage @ 40 C, 7 wks was 1.2 s. For the same binder, the Clotting activity (seconds) in human fibrinogen; HXP12 0.05 mg/ml in saline; after sterilization, storage @ 40 C, 13 wks was 1.1 s, the Clotting activity (seconds) in human fibrinogen; HXP12 0.05 mg/ml in saline; after sterilization, storage @ 40 C, 27 wks was 1.1 s and the Clotting activity (seconds) in human fibrinogen; HXP12 0.05 mg/ml in saline; autoclaved @ 121 C was 1 s. The Clotting activity (seconds) in human fibrinogen; HXP12 0.05 mg/ml in saline; non autoclaved was 1.1 s, the Clotting activity (seconds) in human plasma; HXP12 extracted from HA paste, 0.1 mg/ml; after sterilization, accelerated aging @ 80 C, 4 hours was 2.8 s and the Clotting activity (seconds) in human plasma; HXP12 extracted from HA paste, 0.1 mg/ml; after sterilization, accelerated aging @ 80 C, 16 hours was 4.8 s. The Clotting activity (seconds) in human plasma; HXP12 extracted from HA paste, 0.1 mg/ml; autoclaved @ 121 C was 2.6 s, the Clotting activity (seconds) in human plasma; HXP12 extracted from HA paste, 0.1 mg/ml; non autoclaved was 2 s and the clotting time in human plasma, dendrimer 0.25 mg/ml, 37 C was under 1 s.
